According to publication PMC5986008, “Intracellular free flavin and its associated enzymes participate in oxygen and iron metabolism in Amphibacillus xylanus lacking a respiratory chain” (FEBS Open Bio, 2018):

Key:
[1] = biological target: T1, NAD(P)H oxidoreductase (Npo) (Amphibacillus xylanus, UniProt K0J097); assay: NADPH oxidation kinetics (details not told); format: biochemical; settings: only an upper bound printed; conditions of this determination not told
T1 construct: recombinant from E. coli DE3, pET101 TOPO, reverse primer keeps native stop (primers encode N-terminus MAKDF, C-terminus CENFK); 23 kDa; 1 mol FMN per subunit
T1 sequence (K0J097 1-199): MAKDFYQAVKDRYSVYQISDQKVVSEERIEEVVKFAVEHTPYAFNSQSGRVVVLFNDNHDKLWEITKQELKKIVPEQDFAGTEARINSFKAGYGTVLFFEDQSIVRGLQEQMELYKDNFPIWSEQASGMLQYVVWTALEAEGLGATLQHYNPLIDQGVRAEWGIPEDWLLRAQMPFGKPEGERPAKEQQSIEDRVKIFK

[2] = biological target: T1, NAD(P)H oxidoreductase (Npo); assay: spectral analysis of FMN released from the protein by […] SDS; format: binding; settings: bound flavin cofactor, 1 mol FMN per subunit
purified protein = substrate: Cc1cc2nc3c(=O)[nH]c(=O)nc-3n(C[C@H](O)[C@H](O)[C@H](O)COP(=O)(O)OP(=O)(O)OC[C@H]3O[C@@H](n4cnc5c(N)ncnc54)[C@H](O)[C@@H]3O)c2cc1C; assay: purified protein; format: biochemical, Amphibacillus xylanus; settings: 50 mM sodium phosphate pH 7.0, 0.5 mM EDTA, 25 °C, FAD 15-150 μM as free substrate

`NC(=O)C1=CN([C@@H]2O[C@H](COP(=O)(O)OP(=O)(O)OC[C@H]3O[C@@H](n4cnc5c(N)ncnc54)[C@H](OP(=O)(O)O)[C@@H]3O)[C@@H](O)[C@H]2O)C=CC1` [NADPH] gave a Km [1] of less than 33 µM.

For `Cc1cc2nc3c(=O)[nH]c(=O)nc-3n(C[C@H](O)[C@H](O)[C@H](O)COP(=O)(O)O)c2cc1C` [FMN], the “spectral analysis of FMN released from the protein by 0.1% SDS” value [2] was “spectral analysis of free FMN, which was released from Npo protein”.

B1: NADH oxidase (Nox) (Amphibacillus xylanus NBRC 15112) (protein)
chain: MLDKDIKQQLEQYLALLENDIVIKVSVGDDKVSKDTLELVNEIADMSSMISVEETTLERTPSFSINRKGEPDSGVVFAGIPLGHEFTSLVLALLQVSGRAPKVEASVIDAIKKVEGKHDFVTYVSLTCQNCPDVVQALNLMSVVNPNITHTMVEGSAFKDEVDRLNILAVPSVYLNGEFMASGRMTIEDILGHLGSGIDASELNEKDPFDVLVIGGGPAGASSAIYAARKGIRVGIIADRFGGQVMDTLGIENFIGTKYTEGPKLISEIEQHVNEYNIDVMKGLRAHNIEKKDLFEVQLDNGAVLKSKTIILATGARWRDIGVPGEKEYKNKGVAYCTHCDAPLFEGKHVAVVGGGNSGIESALDLAGIVKHVTVFEFMSELKADAVLQERLRSLPNVDVILNAQTTEITGDETVKGISYIDRTTNEEKHVELQGAFIQIGLAPNTEWLGDTVERNQIGEIVIDKKGQTSVPGIFAAGDCTDTPYKQIIVSMGAGATAALGAFDYLLRN
B1 showed a Km (purified protein; 150 μM NADH) of 37 ± 3 µM, a kcat (purified protein; 150 μM NADH) of 91 ± 8 s⁻¹ and a kcat/Km (purified protein; 150 μM NADH) of 2.42e+06 ± 74000 M⁻¹ s⁻¹.

B2: NAD(P)H oxidoreductase (Npo) (Amphibacillus xylanus NBRC 15112) (protein)
chain: MAKDFYQAVKDRYSVYQISDQKVVSEERIEEVVKFAVEHTPYAFNSQSGRVVVLFNDNHDKLWEITKQELKKIVPEQDFAGTEARINSFKAGYGTVLFFEDQSIVRGLQEQMELYKDNFPIWSEQASGMLQYVVWTALEAEGLGATLQHYNPLIDQGVRAEWGIPEDWLLRAQMPFGKPEGERPAKEQQSIEDRVKIFK
notes: recombinant from E. coli DE3, pET101 TOPO, reverse primer keeps native stop (primers encode N-terminus MAKDF, C-terminus CENFK); 23 kDa; 1 mol FMN per subunit
Molecule B2 has a Km (purified protein; 150 μM NADPH) of 71 ± 10 µM, a kcat (purified protein; 150 μM NADPH) of 1 ± 0.1 s⁻¹ and a kcat/Km (purified protein; 150 μM NADPH) of 14000 ± 1000 M⁻¹ s⁻¹.
